Laboratory results reported in the nanobody polyreactivity screen of Harvey et al. (2022).

Assay: yeast display, Sf9 membrane polyspecificity reagent, FACS + sequencing; frameworks hold sequencing errors
Procedure, shortened: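 Polyreactivity labels are assigned by the sorting gate from which each nanobody was recovered. The gates were low and high (top ~1%), set on anti-HA fluorescence for expression and streptavidin fluorescence for reagent binding. Before sorting, galactose-induced (36–48 hours) yeast display cells were stained for 1 hour at 4 °C with 10% biotinylated, detergent-solubilized Sf9 membrane reagent.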

Row | Sequence | polyreactivity (PSR sort gate)
1 | QVQLVESGGGLVQAGGSLRLSCAASGFTLWYNTMGWYRQAPGKERELVASITIGDSTSYADSVKGRFTISRDNAKNTVYLQMNSLKPEDTAVYYCNAEIALNSYDTYHRAADGYNYWGQGTQVTVSS | low polyreactivity
2 | QVQLVESGGGLVQAGGSLRLSCAASGFTLYDNAMGWYRQAPWKERELVAAISWSGGSTYYADSVKGRFTISRDNAKNTVYLQMNRLKPEDTAVYYCATDFVSYAEGRMEYWGLGTQVTVSS | low polyreactivity
3 | QVQLVESGGGLVQAGGSLRLSCAASGFTLYRNAMGWYRQAPGKERELVAAITSSGGGTYYADSVKGRFTISRDNAKNTVYLQMNSLKPEDTAVYYCAARSTSDREGNYWGQGTQVTVSS | low polyreactivity
4 | QVQLVESGGGLVQAGGSLRLSCAASGFTLYRNAMGWYRQAPGKERELVAAITSSGGRTYYADSVKGRFTISRDNAKYTVYLQMNSLKPEVTAVYSCAADFGLGYYYWGQGTQVTVSS | high polyreactivity
5 | QVQLVESGGGLVQAGGSLRLSCAASGFTLYRYAMAWYRQAPGKERELVAAISWSGGSTYYADSVKGRFTISRDNAKNTVYLQMNSLKPEDTAVYYCAATGYVTRSKRYDYWGQGTQVTVSS | high polyreactivity
6 | QVQLVESGGGLVQAGGSLRLSCAASGFTLYYSAMGWYRQAPGKERELVAAISYSGGSTYYADSVKGRFTISRDYAKNTVYLHMYSLKPEDTAVSYCAVQFSYGFTGGPIYDYWGQGTQVTVSS | low polyreactivity
7 | QVQLVESGGGLVQAGGSLRLSCAASGFTLYYYMGWYRQAPGKERELVARIRATGGSTYYADSVKGRFTISRDNAKNTVDLQMNSLKPEDTAVYYCAAKGVPRRYRPDMYYWGQGTQVTVSS | high polyreactivity
8 | QVQLVESGGGLVQAGGSLRLSCAASGFTNAMGWYRQAPGKERELVAAISYSGDSTNYADSVKGRFTISRDNAKNTVYLQINSVKPEDTAVYYCNASSPYDYDWGQGTHVTVSS | low polyreactivity
9 | QVQLVESGGGLVQAGGSLRLSCAASGFTNLNSMGRYRQAPGKERELVADISASGGTTYYADSVKGRFTISLDNAKNTVYLQMNSLKPEDTAVYYCAARRYYPRWYYWIRFDYWGQGTQVTVSS | high polyreactivity
10 | QVQLVESGGGLVQAGGSLRLSCAASGFTNSMGWYRQAPGKERELVAAISYSGDSTNYADSVKGRFTISRDNAKNTVYLQMNSLKPQDTAVYYCNASSPYDYDWGQGTQVTVSS | low polyreactivity
11 | QVQLVESGGGLVQAGGSLRLSCAASGFTPGNVMGWYRQAPGKERELVAAISWSGDSTYYADSVKGRFTISRDNAKNTVYLQMNSLKPEDTAVYYCAADGVPGRAVDYEYWGQGTQVTVSS | high polyreactivity
12 | QVQLVESGGGLVQAGGSLRLSCAASGFTSGNYAMGWYRQAPGKEREFVAAITWGDGSTFYADSVKGRFTISRDNAKNTVYLQMNSLKPEDTAVYYCAADYSRTYRAYDYWGQGTQVTVSS | low polyreactivity
13 | QVQLVESGGGLVQAGGSLRLSCAASGFTSGYNLMGWYRQAPGKERELVAAISWRGTSTYYADSVKGRFTISRDNAKNTVYLQMNSLKPEDTAVYYCAARQRWYWRGYDYWGQGTQVTVSS | high polyreactivity
14 | QVQLVESGGGLVQAGGSLRLSCAASGFTSGYYAMGWYRQAPGKERELVAAISFSGDDTYYADSVKGRFTISRDNAKNTVYLQMNCLKPEVTAVYYCAAEYDLYFLDQGYWYVAFDYWGQGTQVTVSS | high polyreactivity
15 | QVQLVESGGGLVQAGGSLRLSCAASGFTSGYYAMGWYRQAPGKESELVAAIDWSDGGTYYADSVKGRFTISRDNAKNTVYLQMNSLKPEDTAVYYCATVRYVQITRDDYWGQGTQVTVSS | low polyreactivity
16 | QVQLVESGGGLVQAGGSLRLSCAASGFTSKTNAMGWYRQAPGKERELVAGITRTGGSTYYADSVKGRFTISRDNAKNTVYLQMNSLKPEDTAVYYCAREYGDGYEYWGQGTQVTVSS | low polyreactivity
17 | QVQLVESGGGLVQAGGSLRLSCAASGFTSRKNAMGWYRQAPGKERELVAAITQSSGRTYYADSVKGRFTISRDNAKNTVYLQMNSLKPEDTAVYYCAARRGGEDDYWGQGTQGTVSS | low polyreactivity
18 | QVQLVESGGGLVQAGGSLRLSCAASGFTSSAYAMGWYRQEPGKESELVAVISRSGGRTYYADSVKGRFTISRDNAKNTVYLQMNSLKPEDTADYYCAAEYGVYNIHFPGYDYWGQGTQVTVSS | high polyreactivity
19 | QVQLVESGGGLVQAGGSLRLSCAASGFTSWQYAMGWYRQAPGKERELVAAISVSGASTYYADSVKGRFTISRDNAKNTVYLQMNSLKPEDTAVYYCAAAYVRYPTTRYYYWGQGTQVTVSS | high polyreactivity
20 | QVQLVESGGGLVQAGGSLRLSCAASGFTSYRYAMGWYRQAPGKERELVAAISSSGRTDYADSVKGRFTISRDNAKNSVYLQMNSLKPEDTAVYYCAARTYSYVGRYKFDYWGQGTQVTVSS | high polyreactivity
21 | QVQLVESGGGLVQAGGSLRLSCAASGFTVEKNAMGWYRPAPGNERELVAAITKSGGSTYYADSVKGRFTISRDNAKNTVYLQMNSLKPEDTAVYFCNAPPWSRYYYDLLRHDYWGQGTQVTVSS | low polyreactivity
22 | QVQLVESGGGLVQAGGSLRLSCAASGFTVYGYTMGWYREAPGKERELVAAITSGDSTYYADSVKGRVTISRDIAQNTDYLQMHTLKPEETAVYYCATDWDVEYAWTEYYYWGQGTQVTVSS | high polyreactivity

Row | Sequence | polyreactivity (PSR sort gate)
23 | QVQLVESGGGLVQAGGSLRLSCAASGFTWSYAMGWYRQAPGKERELVATISDGVSTNYADSVKGRFTISRDNAKNTVYLQMNSLKPEDTAVYYCAARYTSWGMGYWGQGTQVTVSS | low polyreactivity
24 | QVQLVESGGGLVQAGGSLRLSCAASGFTYIFYAMGWYRQAPGKERELVAAITWDGDRTYYADSVKGRFTISRDNAKNTVYLQMNSLKPEDTAVYYCNADEGGNYREDYWGQGTQVTVSS | low polyreactivity
25 | QVQLVESGGGLVQAGGSLRLSCAASGFTYRSYTMGWYRQAPGKERELVAAITSRGTSTYYADSVKGRFTISRDNAKNTVYLQMNSLKPEDTALYYCNAARPGKNYDSWGQGTQVTVSS | high polyreactivity
26 | QVQLVESGGGLVQAGGSLRLSCAASGFTYSFYTMGWSRQAPGKERELVAAISRNGGSTYYADSVKGRFTISRDNAKNTVYLQMNSLKPEDTAVYYCAARARGGDWGSGDYWGQGTQVTVSS | high polyreactivity
27 | QVQLVESGGGLVQAGGSLRLSCAASGFTYTYAMGWYIQAPGKERELVAAISKSGGRTYYADSVKGRFTISRDNAKNTVYLQMNSLKPEDTAVYYCAADYSSTYDYWGQGTQVTVSS | high polyreactivity
28 | QVQLVESGGGLVQAGGSLRLSCAASGFTYVVYDMGWYRQAPGKERELLAVITNSGGSTYYADSVKGRFTISRDNAKNTVYLQMYSLKPEDTAVYYCATRTPVWVNTESDYWGQGTQVTVSS | low polyreactivity
29 | QVQLVESGGGLVQAGGSLRLSCAASGFTYYYYAMGWSRQAPGKVRELVAAITYSGGSTYYADSVKGRFTISRDNAKNTVYLLMNSLKPEDTAVYYCNAVVGRWFPFNLSDYWGQGTQVTVSS | low polyreactivity
30 | QVQLVESGGGLVQAGGSLRLSCAASGFVWNAMGWYRQAPGKERELVAAINWRGGSTNYADSVKGRFTISRDNAKNTVYLQMNSLKPEDTAVYYCAAYFFHYHFYQAAYDYWGQGTQVTVSS | low polyreactivity
31 | QVQLVESGGGLVQAGGSLRLSCAASGGICGYYAMGWYRQAPGKERELVAAISWTGGSTYYADSVKGRFTISRDNAKNTVYLQMNSLKPEDTAVYYCAASDSFGYDYWGQGTQVTVSS | high polyreactivity
32 | QVQLVESGGGLVQAGGSLRLSCAASGGIFAHYVMGWYRQAPGKERELVAAISASGGSTYYADSVKGRFTISRDNAKNTVYLQMNSLKPEDTAVYYCAAYYLAWYAYRYKTVGSAMDHWGQGTQVTVSS | low polyreactivity
33 | QVQLVESGGGLVQAGGSLRLSCAASGGIFAPYVMGWYRQAPGKERELVAGITWSGGSTYYADSVKGRFTISRDNAKITVYLQMNSLKPEDTAVYYCAAEWYYSVIWLYEYWGQVTQVTVSS | high polyreactivity
34 | QVQLVESGGGLVQAGGSLRLSCAASGGIFARNAMGWYRQAPGKVRELVAAISWSGGRTYYADSVKGRFTISRDNAKNTDYLQMNSLKPEDTAVYYSAADHDPWWAWEFDYWGQGTQVTVSS | low polyreactivity
35 | QVQLVESGGGLVQAGGSLRLSCAASGGIFDANAMGWYRQAPGKERELVAAISSGGITKYADSVKGRFTISRDNAKNTVYLQMNSLKPEDTAVYYCAASWYRYRFIRYDYWGQGTQVTVSS | high polyreactivity
36 | QVQLVESGGGLVQAGGSLRLSCAASGGIFDRYAMGWKRQAPGKERELVAVISGSVNTYADSVKGRFTISRDNAKNTGYLRMNSLKPEDTAVYYCATQFEGPSGFNYWGQGTQVTVSS | low polyreactivity
37 | QVQLVESGGGLVQAGGSLRLSCAASGGIFDSYALGWYRQAPGKERELVADITSGGSTNYADSVKGRFTISRDNAKNTVYLQMNSLKPEDTAVYYCARTVYGARSYDYWGQGTQVTVSS | low polyreactivity
38 | QVQLVESGGGLVQAGGSLRLSCAASGGIFDTYAMGWYRQAPGKERELVAAISANGGETYYADSVKGRFTISRDNAKTTVYLQMNSLKPEDTAVYYCAADGFLPILHPVPWSYYYPFGYWGQGTQVTVSS | low polyreactivity
39 | QVQLVESGGGLVQAGGSLRLSCAASGGIFDYNAMGWYRQAPGKERELVAAITNGGSTNYADSVKGRFTISRDNAKNSVYLQMNSLKPEDTAVYYCATGYFYDYWGQGTQVTVSS | low polyreactivity
40 | QVQLVESGGGLVQAGGSLRLSCAASGGIFERNDMGWYRQAPGKERELVAGISSVGSTNYADSVKGRFTISRDNAKNTVYLQMNSLKPEDTAVYYCAAGYSRAHDYWGQGTQVTVSS | low polyreactivity
41 | QVQLVESGGGLVQAGGSLRLSCAASGGIFFLYAMGWYRQAPGKERELVAAIRQDGGSTYYADSVKGRFTISRDNAKNTVYLQMNSLKPEDTAVYYCNAGYVKTGLEYYYWGQGTQVTVSS | low polyreactivity
42 | QVQLVESGGGLVQAGGSLRLSCAASGGIFGLYTMGWYRQAPGKERELVAAISKTGGSTYYADSVKGRFTISRDNAKHTVYLQMNSLKPEDTAVYYCAADGPYDDYEYWGQGTQVTVSS | high polyreactivity
43 | QVQLVESGGGLVQAGGSLRLSCAASGGIFGLYTMGWYRQAPGKERELVAGISKRGTRTRYADSVKGRFTISRDNAKNTVYLQMNSLKPEDTAVYYCNADYYVSKLDYWGQGTQVTVSS | high polyreactivity
